Square brackets hold non-standard residues; d marks the D form.
Target: αvβ3 integrin on TNF-α-treated bovine aortic endothelial cells (BAEC) (bovine) (UniProt P80746)
Test: attachment under flow in a microfluidic device coated with TNF-α-treated BAEC cells; reference RGD-targeted nanospheres

B1: RGD-NC nanoparticle (integrin-targeted nanochain of four iron oxide nanospheres carrying c(RGDfC) peptides on PEG) (peptide)
peptide: cyclo(RGD[dF]C)
modifications: not fully specified (residue 5); printed as cyclo (Arg-Gly-Asp-D-Phe-Cys); also: nanochain also tagged with VivoTag 680
- fold higher attachment compared to RGD-targeted nanospheres (after 5 min): 9.5 fold
- fold higher attachment compared to RGD-targeted nanospheres (after 20 min): 2.9 fold
